# From publication PMC9976900
# Numbering of substitutions follows the chain as printed.
# T1: Unr CSD789 wild type (Drosophila, UniProt B7Z0E2 756-990)
# T1 sequence: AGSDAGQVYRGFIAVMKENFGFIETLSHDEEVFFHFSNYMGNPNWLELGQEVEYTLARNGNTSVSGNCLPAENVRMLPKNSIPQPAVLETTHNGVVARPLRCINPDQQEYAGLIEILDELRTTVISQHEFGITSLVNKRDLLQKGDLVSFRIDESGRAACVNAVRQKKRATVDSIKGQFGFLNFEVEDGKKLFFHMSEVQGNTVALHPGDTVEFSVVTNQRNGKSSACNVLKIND
# T2: Unr CSD789 N977A (Drosophila, UniProt B7Z0E2 756-990, N977A)
# T2 sequence: T1 sequence with N222A
# T3: Unr CSD789 P860A (Drosophila, UniProt B7Z0E2 756-990, P860A)
# T3 sequence: T1 sequence with P105A
# T4: Unr CSD789 K979A (Drosophila, UniProt B7Z0E2 756-990, K979A)
# T4 sequence: T1 sequence with K224A
# T5: Unr CSD789 E786A (Drosophila, UniProt B7Z0E2 756-990, E786A)
# T5 sequence: T1 sequence with E31A
# T6: Unr CSD789 R856A (Drosophila, UniProt B7Z0E2 756-990, R856A)
# T6 sequence: T1 sequence with R101A
# T7: Unr CSD789 Q975A (Drosophila, UniProt B7Z0E2 756-990, Q975A)
# T7 sequence: T1 sequence with Q220A
# T8: Unr CSD789 Q868A (Drosophila, UniProt B7Z0E2 756-990, Q898A)
# T8 sequence: T1 sequence with Q143A
# T9: Unr CSD789 E786A/R856A/P860A (ERPmut) (Drosophila, UniProt B7Z0E2 756-990, E786A;R856A;P860A)
# T9 sequence: T1 sequence with E31A, R101A, P105A
# T10: Unr CSD789 R976A (Drosophila, UniProt B7Z0E2 756-990, R976A)
# T10 sequence: T1 sequence with R221A
# Tests used:
# Unr CSD789 wild type [1] = molecular target: T1, Unr CSD789 wild type; assay: ITC
# Unr CSD789 wild type [2] = molecular target: T1, Unr CSD789 wild type; assay: NMR titration
# pAbp RRM3 = pAbp RRM3 (Drosophila, UniProt P21187 176-263); assay: NMR titration
# Sequence of pAbp RRM3 (P21187 176-263): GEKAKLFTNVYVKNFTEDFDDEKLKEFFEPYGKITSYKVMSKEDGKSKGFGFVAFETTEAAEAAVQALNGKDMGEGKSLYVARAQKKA
# Unr CSD789 N977A = molecular target: T2, Unr CSD789 N977A; assay: fluorescence polarization
# Unr CSD789 wild type [3] = molecular target: T1, Unr CSD789 wild type; assay: fluorescence polarization
# Unr CSD789 P860A = molecular target: T3, Unr CSD789 P860A; assay: fluorescence polarization
# Unr CSD789 K979A = molecular target: T4, Unr CSD789 K979A; assay: fluorescence polarization
# Unr CSD789 E786A = molecular target: T5, Unr CSD789 E786A; assay: fluorescence polarization
# Unr CSD789 R856A = molecular target: T6, Unr CSD789 R856A; assay: fluorescence polarization
# Unr CSD789 Q975A = molecular target: T7, Unr CSD789 Q975A; assay: fluorescence polarization
# Unr CSD789 Q868A = molecular target: T8, Unr CSD789 Q868A; assay: fluorescence polarization
# [4] = molecular target: T9, Unr CSD789 E786A/R856A/P860A (ERPmut); assay: fluorescence polarization
# Unr CSD789 R976A = molecular target: T10, Unr CSD789 R976A; assay: fluorescence polarization
binder,measurement,setting,value
AAAAAAAAA (ssRNA) [A9-mer],Kd,Unr CSD789 wild type [1],4.3 ± 1.3 µM
AAAAA (ssRNA) [A5-mer],Kd,Unr CSD789 wild type [2],127 ± 16.6 µM
same,binding result,pAbp RRM3,binds
"AAAAAAAAAAAAAAA (ssRNA) [A15-mer, 3' labelled]",Kd,Unr CSD789 N977A,71.2 ± 12.5 µM
same,Kd,Unr CSD789 wild type [3],21.1 ± 3.6 µM
same,Kd,Unr CSD789 P860A,67.2 ± 7.9 µM
same,Kd,Unr CSD789 K979A,160 ± 57.6 µM
same,Kd,Unr CSD789 E786A,50.1 ± 6.4 µM
same,Kd,Unr CSD789 R856A,72.4 ± 11 µM
same,Kd,Unr CSD789 Q975A,38.2 ± 8.7 µM
same,Kd,Unr CSD789 Q868A,61 ± 12.1 µM
same,Kd,[4],~94.7 µM
same,Kd,Unr CSD789 R976A,161 ± 51.2 µM
AAAAAAAA (ssRNA) [A8-mer],Kd,Unr CSD789 wild type [1],4.4 ± 2.7 µM
same,binding result,pAbp RRM3,binds
AAAAAAAAAAAAAAA (ssRNA) [A15-mer],Kd,Unr CSD789 wild type [1],4.8 ± 0.8 µM
same,Kd,Unr CSD789 wild type [2],8 ± 1.5 µM
AAAAAAA (ssRNA) [A7-mer],Kd,Unr CSD789 wild type [1],17.7 ± 5.2 µM
